Molecular target: T1, biotinylated soluble human LDLR (sohLDLR) (human, UniProt P01130-1 22-788, biotin (biotinylated; site not stated))
T1 construct: also called biotinylated LDLR; soluble biotinylated LDLR; source: bought: SinoBiological #10231-H08H-B
Test: BLI
Conditions: both partners purified

T1 sequence (P01130 22-788): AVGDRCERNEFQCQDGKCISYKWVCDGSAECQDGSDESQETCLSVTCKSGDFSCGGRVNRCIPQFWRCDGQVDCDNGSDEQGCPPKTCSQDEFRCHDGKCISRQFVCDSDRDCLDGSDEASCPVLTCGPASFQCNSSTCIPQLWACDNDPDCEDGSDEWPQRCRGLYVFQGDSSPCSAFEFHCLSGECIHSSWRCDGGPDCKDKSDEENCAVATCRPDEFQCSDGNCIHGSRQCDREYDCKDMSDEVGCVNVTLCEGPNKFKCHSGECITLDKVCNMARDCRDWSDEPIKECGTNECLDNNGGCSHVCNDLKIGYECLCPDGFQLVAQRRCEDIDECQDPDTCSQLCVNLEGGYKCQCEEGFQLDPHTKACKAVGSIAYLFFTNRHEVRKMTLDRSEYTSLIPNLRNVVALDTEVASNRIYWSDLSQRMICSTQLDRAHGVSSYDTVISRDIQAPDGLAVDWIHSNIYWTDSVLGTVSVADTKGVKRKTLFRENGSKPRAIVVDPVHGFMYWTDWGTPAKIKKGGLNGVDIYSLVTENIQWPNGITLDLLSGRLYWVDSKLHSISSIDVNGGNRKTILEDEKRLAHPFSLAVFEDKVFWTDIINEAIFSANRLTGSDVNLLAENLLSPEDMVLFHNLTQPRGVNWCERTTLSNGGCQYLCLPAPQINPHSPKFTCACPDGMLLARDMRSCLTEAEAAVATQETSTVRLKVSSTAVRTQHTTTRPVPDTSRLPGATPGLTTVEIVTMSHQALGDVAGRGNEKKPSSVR

B1: VSV G protein (Indiana strain) (natural protein)
chain: KFTIVFPHNQKGNWKNVPSNYHYCPSSSDLNWHNDLIGTAIQVKMPKSHKAIQADGWMCHASKWVTTCDFRWYGPKYITQSIRSFTPSVEQCKESIEQTKQGTWLNPGFPPQSCGYATVTDAEAVIVQVTPHHVLVDEYTGEWVDSQFINGKCSNYICPTVHNSTTWHSDYKVKGLCDSNLISMDITFFSEDGELSSLGKEGTGFRSNYFAYETGGKACKMQYCKHWGVRLPSGVWFEMADKDLFAAARFPECPEGSSISAPSQTSVDVSLIQDVERILDYSLCQETWSKIRAGLPISPVDLSYLAPKNPGTGPAFTIINGTLKYFETRYIRVDIAAPILSRMVGMISGTTTERELWDDWAPYEDVEIGPNGVLRTSSGYKFPLYMIGHGMLDSDLHLSSKAQVFEHPHIQDAASQLPDDESLFFGDTGLSKNPIELVEGWFSSWKSSIASFFFIIGLIIGLFLVLRVGIHLCIKLKHTKKRQIYTDIEMNRLGK
Kd: 54.3 nM
